Laboratory results as given in patent publication US20140289906A1, “Compositions Having Dicamba Decarboxylase Activity and Methods of Use” (priority 2013, published 2014).

Test: 14C assay: 14CO2 capture from [14C]-carboxyl-labeled dicamba with IPTG-induced recombinant E. coli cells
Conditions: for Dicamba Decarboxylase Activity: IPTG-induced recombinant E. coli cells, 14CO2 from [14C]-carboxyl-labeled dicamba; for Enzymatic Detection level: dicamba decarboxylation activity

B1: 82 (protein, listed as Rhodopseudomonas palustris)
chain: MAQNETPVIAIEEHYWDPEMVARFPAGENASPFSTLLTELGDVRLRAMDEAGIDVQVLSHGAPAAQKLPPDVAPELTRRVNDRLAEACARFPNRFAAFAALPTPAPEAAARELERCVRDLGFKGAMIHGLTNGLFIDDKRFWPIFEVAEKLDVPIYLHPSVPHADVTRYYYDDYAREFPTVIRPAWGFTVETATQAIRLILSRALESYPRLQIILGHLGETLPFLLWRINQALARPGQTPLDFRKQFCDHFHVTTSGFFSTPALICTMLELGIDRIMFAVDYPYVVNRDGTDWVQQLQISPDDKRKLVGGNARRLLKL
Dicamba Decarboxylase Activity: Low
Enzymatic Detection level: Low

B2: 90 (protein)
chain: MAATIDRVLYLGNATQRRYTSATVSVPRIFGKVALEEHVGTSIWAKYNLTPPANAVVGVLNRPPTLPNTLDTIARLDDINGRLSSMNHSGIGYVIVSLSSPGIQGVHDTALAIKFSTDINDELYLKYANAYPDKFAFFATVPMQDPVAAASELERAVSLLGAKGAAINGYTDIGPPGNSTTRYLDDPINAPFWSKVAALNVPIYLHPRAPPPSQQLVYNYPNNSLSAYPGLVTGGFAYGAETAVHALRLMLSGLFDTHPNIQIILGHAAEGLPFLIHRSDTQLAAEVPGTNGPYKRPLRYYLRNNFYATLSGVRRLSTTQCTLAEMGEERVLFSVDYPFQSNEDAADWFDGVEGMSVETKRKVARGNARRLFNLTVDLDERQIDGDFM
modifications: Pyrenophora tritici-repentis
Dicamba Decarboxylase Activity: Low
Enzymatic Detection level: Low

B3: 83 (protein, listed as Mycobacterium rhodesiae)
chain: MALIALEEHYAWSPVSAGNVVGSWLETHNVTAYQRLYDRGPLRLEQMDAAGIDFQILSLFDPGVQDDDDTARAVENARRANDDLAETVRAAPDRFGGFATLAPQDPDAAAAELERAVGELGLVGGLINGHTHGRYLDDPAYLGLFECAQRLGVPIYLHPTTPHPAVMDAWFAPYVKDGLHLASWGFAAETGTHALRLIYSGLFDTFPRLQMILGHLGEMLPYAAYRIDRYYGLGGGDDGGRLARLPSEYLRDNFHVTTSGNFNPVAFACALDVMGPDRLMFSVDYPMDDNVTGAEFLRNLEVDDDVRRKVAGENALQLFGDKIPRR
Dicamba Decarboxylase Activity: Low
Enzymatic Detection level: Low

B4: 84 (protein, listed as Mycobacterium rhodesiae)
chain: MASLIALEEHYAWDPASEGNVVATWLRANNGVAYDRLYDRGPLRIEQMDAAGIDFQILSLFDPGVQDEVDAVRAVDLARRANDDLAESVRANPSRFGGFATLATQQPDAAVAEFDRAVTELGLVGGLINGHCQGRYLDDPAYEALFSRAEALGAPIYLHPTTPHPAVMDAWFAPYVGDGLHLASWGFAAETGTHVLRLIYSGLFDKFPRLQMIIGHLGEMLPFAAYRIDRYYGLGGGGTGHTLQHLPSDYLRNNFHVTTSGNFCSPALDCTLDVMGADRVMFSVDYPMDDNQTGADFLASYPMDDTNRRKVASENALRLFGDRIPAALRN
Dicamba Decarboxylase Activity: Low
Enzymatic Detection level: Low

B5: 7 (protein, listed as Legionella pneumophila)
chain: MAIVDFETHFITEACIDYLTQRQEVPKLVPELNGAYTMCFTPDVSLFHTSALMEELLSLNEQRLAIMDQAGVTIQVLSLTTINGIDSCPGDENKSTALAREVNDQLYSAIQRHPERFKGFASISPYDVKEGVKELERAISQLGFVGWLTHSNFGEDNYLDDKTYWPLLEAAEGLNIPIYLHPNVPIMREFGKYGFALGGSALGFEFDTALCLMRMILGGVFDAFPKLKIMLGHLGETMPFLMERLDHLYRIPDLKAYRPSIQRIPSEVLRQNVYITTSGRFFVPALRYVLEVMGEDRVLFASDYPMESLLDATRFIQDSDLSNQTKQKIFSINAKNLNLI
Dicamba Decarboxylase Activity: No
Enzymatic Detection level: No

B6: 85 (protein, listed as Maritimibacter alkaliphilus)
chain: MAADRKPGLVSVEEGFMIPEVVAELSRIAGGVPSMKSGPIAGPFMDDLLDIGKGRVARMDADGVAVQILALAAPGVQKFDPDTALALSRLTNDRLAEAIAAHPARFGGLAAAPPQAAREGAKELDRAITTLGLNGLIVNSHTNDLYLDDPSFWPLLEAAEALDVPVYLHPREPAAGIEGGLMAMTGFTVGWAYAVETGTHLLRMIAAGVFDRFPRLRIVLGHLGEMIPFMLDRIDNRYPFEMGVTGAKPLPRKPSDYFRDHVTVATSGMNFNAPMRAAIEVLGADKVMFAADYPMERQDEEVAKFAALDLTPDERKRIGEDNARRVFGL
Dicamba Decarboxylase Activity: Low
Enzymatic Detection level: Low

B7: 80 (protein, listed as Cordyceps militaris)
chain: MAAASTPVVVDIHTHMYPPSYIAMLEKRQTIPLVRTFPQADEPRLILLSSELAALDAALADPAAKLPGRPLSTHFASLAQKMHFMDTNGIRVSVISLANPWFDFLAPDEAPGIADAVNAEFSDMCAQHVGRLFFFAALPLSAPVDAVKASIERVKNLKYCRGIILGTSGLGKGLDDPHLLPVFEAVADAKLLVFLHPHYGLPNEVYGPRSEEYGHVLPLALGFPMETTIAVARMYMAGVFDHVRNLQMLLAHSGGTLPFLAGRIESCIVHDGHLVKTGKVPKDRRTIWTVLKEQIYLDAVIYSEVGLQAAIASSGADRLMFGTDHPFFPPIEEDVQGPWDSSRLNAQAVIKAVGEGSSDAAAVMGLNAVRVLSLKAE
Dicamba Decarboxylase Activity: Low
Enzymatic Detection level: Low

B8: 86 (protein, listed as Sphingopyxis alaskensis)
chain: MALGASVASREASAQMAKAPMRKIATEEAFATPELAKAWLEIARSEPNSSLDIPTGILSIFDNPRPGSNQDRFRRQLLDVDAERIRDMDEAGVDMQLLSVTIPGVQIFEPARAGELAVTTNDHLAAAIARRPTRFAGLACFAPHDPVQATREMERAVNALGLKGFIVNSHTQDLYLDDPRFAPVLEAAQSLDCPIYLHPRAPSNGMAAPFRDYSMGGSIWGFGVEAGTHAVRMILSGVFDRYPRLRIVLGHMGEALPFWMWRLDHMAARRAKDGRMKPLSLAPSEYFKRNFAVTTSGFESPDVLDLVIKVAGIENIMWAIDYPYESSRDAVTFIEGADLTASQRASIFHRNAVRHFRLS
Dicamba Decarboxylase Activity: Low
Enzymatic Detection level: Low

B9: 91 (protein, listed as Botryotinia fuckeliana)
chain: MASFVCNFGKAALATLLLTPSISAADYTPQETVLNSGRPTFYDASTSIPGKIALEEHVGNDLLNGLYTVPYYPNTNEPQYSDSVYIADVGEKMLDIPSRIANMDAANISISVLTFGGPGIQGVFNATYATYAAGYVNDYLYKNYKNNANYTGRFEFWCSNALQEPSKAATELERCVKELGGVGSFVGGYTNNGGINGTANDIVYLDDPSMEPFLEKVVELDVPIYLHPRMPAPSQLLSVKGYEFLGSSPWGFSSETGAHALRLMVSGTLDKYPTLKIVLGHCGEGLPFFLPRIDQRLRHFKKELFNNTLTMEEYWLRNFYVTTAGVQDAGTLVDTIKRTGEDRVMFSVDYPFEDTVEIAGWFDRLEMNTLTKTKLAYENAKALLKLTCYVDAEKRPRIFNKHHVDDIIKHTHSPCIWTLFH
Dicamba Decarboxylase Activity: Low
Enzymatic Detection level: Low

B10: 6 (protein)
chain: MAEILSPEESIYYSKLSNDILAEGIKKNPTRFRGFAALPTPDPIQAAMELERCIKLGGFVGAIINGHINGHYLDEIQFDPILEAADALDVPLYIHPAVPPKAIIDTYYKMNDTYAQTVMVSGGWGWHIETGVHVLRLISSGVFDRHPNLKIVIGHLGEGLPFFMHRLNNAIGGNLKKSYSTYLKENIYYTISGFNDPDLFQFVLKKVGENNIMFSSDYPFNFPKREVELFNELNISEEVREKISFKNAERILKI
modifications: Treponema brennaborense
Dicamba Decarboxylase Activity: No
Enzymatic Detection level: No
